The labels stand for the following.
B1: Actinin (ACTN1) 719-892 (other, human, UniProt P12814 719-892, looked up)
chain: QLLTTIARTINEVENQILTRDAKGISQEQMNEFRASFNHFDRDHSGTLGPEEFKACLISLGYDIGNDPQGEAEFARIMSIVDPNRLGVVTFQAFIDFMSRETADTDTADQVMASFKILAGDKNYITMDELRRELPPDQAEYCIARMAPYTGPDSVPGALDYMSFSTALYGESDL
notes: prey (Gal4 AD-HA fusion)
B2: tetratricopeptide repeat domain 3 (TPRD) 1058-1189 (other, human, UniProt P53804 1058-1189, looked up)
chain: NRNSDSAGPFAVPDHLRQDVEEFEALYDQHSNEYVVRNKKLWDMNPKQKCSTLYDYFSQFLEEHGPLDMSNKMFSAEYEFFPEETRQILEKAGGLKPFLLGCPRFVVIDNCIALKKVASRLKKKRKKKNIKT
notes: prey (Gal4 AD-HA fusion)
B3: Survivin (BIRC5) 52-143 (other, human, UniProt O15392 52-142, looked up)
chain: PDLAQCFFCFKELEGWEPDDDPIEEHKKHSSGCAFLSVKKQFEELTLGEFLKLDRERAKNKIAKETNNKKKEFEETAKKVRRAIEQLAAMD
notes: range 52-143; bait (Gal4 DBD fusion); also called API4
B4: syntaxin 2 (STX2) 156-261 (other, human, UniProt P32856 156-261, looked up)
chain: GRTTTDDELEEMLESGKPSIFTSDIISDSQITRQALNEIESRHKDIMKLETSIRELHEMFMDMAMFVETQGEMINNIERNVMNATDYVEHAKEETKKAIKYQSKAR
B5: Tumor Suppressor (TSG101) 231-391 (other, human, UniProt Q99816 231-390, looked up)
chain: ISAVSDKLRWRMKEEMDRAQAELNALKRTEEDLKKGHQKLEEMVTRLDQEVAEVDKNIELLKKKDEELSSALEKMENQSENNDIDEVIIPTAPLYKQILNLYAEENAIEDTIFYLGEALRRGVIDLDVFLKHVRLLSRKQFQLRALMQKARKTAGLSDLY
notes: bait (Gal4 DBD fusion)
B6: ribosomal protein S6 kinase, 90 kDa, polypeptide 1 (p90RSK) 418-467 (enzyme, human, UniProt Q15418 418-467, looked up)
chain: YVVKETIGVGSYSECKRCVHKATNMEYAVKVIDKSKRDPSEEIEILLRYG
notes: range 418-467; bait (Gal4 DBD fusion); also called HU1
B7: Tumor Suppressor (TSG101) 140-270 (other, human, UniProt Q99816 140-270, looked up)
chain: PVFSRPISASYPPYQATGPPNTSYMPGMPGGISPYPSGYPPNPSGYPGCPYPPGGPYPATTSSQYPSQPPVTTVGPSRDGTISEDTIRASLISAVSDKLRWRMKEEMDRAQAELNALKRTEEDLKKGHQKL
notes: range 140-270; bait (Gal4 DBD fusion)
B8: Survivin (BIRC5) 3-99 (other, human, UniProt O15392 3-99, looked up)
chain: APTLPPAWQPFLKDHRISTFKNWPFLEGCACTPERMAEAGFIHCPTENEPDLAQCFFCFKELEGWEPDDDPIEEHKKHSSGCAFLSVKKQFEELTLG
notes: range 3-99; bait (Gal4 DBD fusion); also called API4
B9: v-akt murine thymoma viral oncogene homolog 2 (AKT2) 1-108 (enzyme, human, UniProt P31751 1-108, looked up)
chain: MNEVSVIKEGWLHKRGEYIKTWRPRYFLLKSDGSFIGYKERPEAPDQTLPPLNNFSVAECQLMKTERPRPNTFVIRCLQWTTVIERTFHVDSPDEREEWMRAIQMVAN
notes: bait (Gal4 DBD fusion)
B10: Survivin (BIRC5) 89-143 (other, human, UniProt O15392 89-142, looked up)
chain: VKKQFEELTLGEFLKLDRERAKNKIAKETNNKKKEFEETAKKVRRAIEQLAAMD
notes: range 89-143; bait (Gal4 DBD fusion); also called API4

Common to all, as to assay: yeast two-hybrid
Experiment [1] concerns the target T1, Tumor Suppressor (TSG101) 1-274 (human, UniProt Q99816 1-274).
T1 construct: range 1-274; bait (Gal4 DBD fusion)
T1 sequence (looked up): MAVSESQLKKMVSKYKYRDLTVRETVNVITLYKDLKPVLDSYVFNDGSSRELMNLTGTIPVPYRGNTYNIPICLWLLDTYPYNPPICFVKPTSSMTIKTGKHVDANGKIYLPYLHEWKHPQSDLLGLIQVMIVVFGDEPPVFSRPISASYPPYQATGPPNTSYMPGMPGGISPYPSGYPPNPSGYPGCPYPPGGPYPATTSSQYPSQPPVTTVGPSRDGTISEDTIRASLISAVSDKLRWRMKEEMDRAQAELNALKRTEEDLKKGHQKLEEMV

In experiment [2] the target is T2, v-akt murine thymoma viral oncogene homolog 2 (AKT2) 1-152 (human, UniProt P31751 1-152).
T2 construct: bait (Gal4 DBD fusion)
T2 sequence (looked up): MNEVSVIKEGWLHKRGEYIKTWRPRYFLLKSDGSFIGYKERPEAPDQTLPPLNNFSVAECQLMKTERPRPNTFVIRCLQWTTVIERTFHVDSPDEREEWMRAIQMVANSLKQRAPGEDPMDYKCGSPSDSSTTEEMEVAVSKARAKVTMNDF

Experiment [3] has as its target T3, v-akt murine thymoma viral oncogene homolog 1 (AKT1) 1-150 (human, UniProt P31749 1-150).
T3 construct: range 1-150; bait (Gal4 DBD fusion)

In experiment [4] the target is T4, Catenin, alpha 2 (A2-CAT) 1-166 (human, UniProt P26232 1-166).
T4 construct: prey (Gal4 AD-HA fusion)
T4 sequence (looked up): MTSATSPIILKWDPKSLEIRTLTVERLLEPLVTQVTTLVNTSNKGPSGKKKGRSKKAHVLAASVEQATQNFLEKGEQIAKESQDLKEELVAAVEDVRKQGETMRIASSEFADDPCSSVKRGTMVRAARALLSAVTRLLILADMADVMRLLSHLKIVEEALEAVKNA

In experiment [5] the target is T5, Catenin, alpha 2 (A2-CAT) 55-487 (human, UniProt P26232 55-487).
T5 construct: prey (Gal4 AD-HA fusion)
T5 sequence (looked up): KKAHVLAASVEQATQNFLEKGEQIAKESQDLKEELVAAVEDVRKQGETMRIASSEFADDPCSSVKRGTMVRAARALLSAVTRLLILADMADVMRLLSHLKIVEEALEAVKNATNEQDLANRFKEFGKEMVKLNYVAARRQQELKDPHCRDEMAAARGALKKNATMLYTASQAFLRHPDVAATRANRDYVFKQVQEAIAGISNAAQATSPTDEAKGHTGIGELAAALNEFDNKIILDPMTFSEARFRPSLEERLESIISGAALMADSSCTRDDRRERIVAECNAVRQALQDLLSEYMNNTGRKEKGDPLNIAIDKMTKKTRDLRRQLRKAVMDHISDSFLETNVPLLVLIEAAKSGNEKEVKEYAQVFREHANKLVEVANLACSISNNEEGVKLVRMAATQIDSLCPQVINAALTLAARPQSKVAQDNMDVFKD

The target of experiment [6] is T6, Apolipoprotein A-I (APOA1) 106-267 (human, UniProt P02647 106-267).
T6 construct: bait (Gal4 DBD fusion)

In experiment [7] the target is T7, VPS28 protein 9-211 (human, UniProt Q9UK41 9-211).
T7 construct: prey (Gal4 AD-HA fusion); also called vacuolar protein sorting 28
T7 sequence (looked up): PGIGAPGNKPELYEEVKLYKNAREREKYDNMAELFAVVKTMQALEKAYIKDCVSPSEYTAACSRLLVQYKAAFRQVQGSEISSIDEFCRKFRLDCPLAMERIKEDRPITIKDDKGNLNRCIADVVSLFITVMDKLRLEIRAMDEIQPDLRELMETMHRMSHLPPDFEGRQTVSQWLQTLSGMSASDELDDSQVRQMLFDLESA

Experiment [8] has as its target T8, Golgi autoantigen (Golgin-84) 198-501 (human, UniProt Q8TBA6 198-501).
T8 construct: prey (Gal4 AD-HA fusion)
T8 sequence (looked up): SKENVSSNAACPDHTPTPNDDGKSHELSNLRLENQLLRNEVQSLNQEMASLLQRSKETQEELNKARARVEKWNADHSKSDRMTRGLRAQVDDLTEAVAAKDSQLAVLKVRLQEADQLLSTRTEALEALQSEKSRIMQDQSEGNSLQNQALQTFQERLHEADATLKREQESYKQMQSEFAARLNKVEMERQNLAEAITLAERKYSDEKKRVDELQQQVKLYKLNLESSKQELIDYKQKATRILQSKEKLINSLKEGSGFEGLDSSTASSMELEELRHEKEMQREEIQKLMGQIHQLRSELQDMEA

Experiment [9] addresses T9, Cytoplasmic linker 2 (CYLN2) 607-947 (human, UniProt Q9UDT6 607-947).
T9 construct: prey (Gal4 AD-HA fusion)
T9 sequence (looked up): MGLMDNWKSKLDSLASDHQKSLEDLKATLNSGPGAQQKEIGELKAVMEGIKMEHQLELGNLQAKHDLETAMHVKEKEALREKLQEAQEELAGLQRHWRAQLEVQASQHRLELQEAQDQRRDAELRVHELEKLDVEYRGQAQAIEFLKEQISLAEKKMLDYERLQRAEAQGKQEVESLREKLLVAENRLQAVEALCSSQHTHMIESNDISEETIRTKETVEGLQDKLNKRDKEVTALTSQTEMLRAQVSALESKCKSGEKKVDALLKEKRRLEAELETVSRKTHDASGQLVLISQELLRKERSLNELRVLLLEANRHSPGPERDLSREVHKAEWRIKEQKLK

For experiment [10], the target named is T10, upstream of N-ras, alt. transcript (798) (UNR) 110-528 (human, UniProt O75534 110-528).
T10 construct: prey (Gal4 AD-HA fusion)
T10 sequence (looked up): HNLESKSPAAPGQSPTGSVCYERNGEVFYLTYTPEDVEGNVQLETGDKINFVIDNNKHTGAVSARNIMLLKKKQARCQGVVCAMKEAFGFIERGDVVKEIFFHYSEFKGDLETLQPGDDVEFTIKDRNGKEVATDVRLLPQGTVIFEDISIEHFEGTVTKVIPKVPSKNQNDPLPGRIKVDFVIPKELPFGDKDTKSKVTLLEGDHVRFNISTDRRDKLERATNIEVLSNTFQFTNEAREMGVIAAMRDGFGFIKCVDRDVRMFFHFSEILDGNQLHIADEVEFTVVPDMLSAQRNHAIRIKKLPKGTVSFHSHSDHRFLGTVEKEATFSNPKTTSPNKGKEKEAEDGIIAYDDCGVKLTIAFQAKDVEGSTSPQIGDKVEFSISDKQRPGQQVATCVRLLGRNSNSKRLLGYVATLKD

Experiment [11] addresses T11, Hypothetical protein FLJ10540 2-132 (human, UniProt Q53EZ4 2-132).
T11 construct: prey (Gal4 AD-HA fusion)
T11 sequence (looked up): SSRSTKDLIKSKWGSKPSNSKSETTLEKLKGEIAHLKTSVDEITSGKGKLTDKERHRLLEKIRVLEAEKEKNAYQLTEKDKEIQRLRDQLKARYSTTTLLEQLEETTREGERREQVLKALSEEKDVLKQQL

Experiment [12] deals with T12, Hypothetical protein FLJ10540 1-140 (human, UniProt Q53EZ4 1-140).
T12 construct: range 1-140; prey (Gal4 AD-HA fusion)
T12 sequence (looked up): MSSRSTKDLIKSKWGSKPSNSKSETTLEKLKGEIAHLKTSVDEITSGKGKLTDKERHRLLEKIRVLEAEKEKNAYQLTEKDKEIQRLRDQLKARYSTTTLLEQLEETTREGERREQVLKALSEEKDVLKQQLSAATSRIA

Experiment [13] concerns the target T13, DNA helicase II, ATP-dependent, 70 kD subunit (KU70) 131-403 (table prints 1131-4404) (human, UniProt P12956 131-403).
T13 construct: prey (Gal4 AD-HA fusion)

For experiment [14], the target named is T14, intracellular chloride channel protein (CLIC1) 51-210 (human, UniProt O00299 51-210).
T14 construct: range 51-210; prey (Gal4 AD-HA fusion); also called NCC27

In experiment [15] the target is T15, intracellular chloride channel protein (CLIC1) 98-210 (human, UniProt O00299 98-210).
T15 construct: range 98-210; prey (Gal4 AD-HA fusion); also called NCC27

Experiment [16] concerns the target B2.
Experiment [17] addresses T16, Cytoplasmic dynein light chain 1 (HDLC1) 1-90 (human, UniProt P63167 1-89).
T16 construct: range 1-90; prey (Gal4 AD-HA fusion)

T3 sequence (P31749 1-150 limits assumed): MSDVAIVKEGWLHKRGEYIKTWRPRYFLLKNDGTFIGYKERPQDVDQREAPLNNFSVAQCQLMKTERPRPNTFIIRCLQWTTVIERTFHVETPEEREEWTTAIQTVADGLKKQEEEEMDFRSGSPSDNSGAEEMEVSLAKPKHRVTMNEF
T13 sequence (P12956 131-403 limits assumed): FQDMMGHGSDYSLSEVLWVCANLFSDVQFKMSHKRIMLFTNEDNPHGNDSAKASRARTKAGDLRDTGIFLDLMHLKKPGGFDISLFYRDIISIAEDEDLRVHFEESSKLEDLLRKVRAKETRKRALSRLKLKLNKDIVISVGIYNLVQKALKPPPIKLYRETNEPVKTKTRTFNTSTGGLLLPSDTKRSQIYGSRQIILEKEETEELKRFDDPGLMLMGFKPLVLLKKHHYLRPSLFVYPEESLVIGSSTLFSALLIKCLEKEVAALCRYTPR
T6 sequence (P02647 106-267 limits assumed, form in doubt): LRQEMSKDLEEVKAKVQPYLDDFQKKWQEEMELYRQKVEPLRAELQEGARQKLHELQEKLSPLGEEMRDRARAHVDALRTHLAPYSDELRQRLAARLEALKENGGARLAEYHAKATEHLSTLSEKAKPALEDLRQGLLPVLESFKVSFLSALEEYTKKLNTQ
T16 sequence (P63167 whole entry, the tested form may be a part): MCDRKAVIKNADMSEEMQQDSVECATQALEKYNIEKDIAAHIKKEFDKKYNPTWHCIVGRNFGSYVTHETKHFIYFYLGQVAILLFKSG

For the molecule B1, the binding result in [1] is listed as “binds”.

As for B2, the binding result in experiment [2] and in experiment [3] was “binds” each time.

B3: the binding result in experiment [4] and in [5] was “binds” in each case.

As for B4, the binding result in experiment [6] was “binds”.

As to B5, the binding result in experiment [7], in experiment [8] and in experiment [9] was “binds” each time.

As for B6, in [10], the binding result is “binds”.

With B7, the binding result in experiment [11] and in experiment [12] was “binds” each time.

For the molecule B8, the binding result in experiment [13] is “binds”.

In the case of B9, the binding result in experiment [14], in [15] and in [16] was “binds” in each case.

In the case of B10, the binding result in experiment [17] is given as “binds”.

For the origin of these results see patent US20050222029A1 (MYRIAD GENETICS, published 2005).
